Key:
[1] = target: PsSYM10 extracellular domain (PsSYM10-ECD) (Pisum sativum (pea))
[2] = target: PsSYM10 extracellular domain (PsSYM10-ECD) (Pisum sativum (pea)); remark: listed apart in the source
[3] = target: PsSYM10 extracellular domain (PsSYM10-ECD) (Pisum sativum (pea)); remark: listed apart in the source

With “PsK1-ECD with P169S replacement in LysM3 (as in the k1-2 mutant line) (domain or fragment)” the hypersensitive response in N. benthamiana leaves on co-production of full-length PsSYM10 and full-length PsK1-6xHIS with P169→S; percent of leaves with HR [1] was 53%.
With “PsK1 extracellular domain (PsK1-ECD), wild type (domain or fragment)” the hypersensitive response (cell death) in N. benthamiana leaves 48–72 h after infiltration, on co-production of full-length PsSYM10-3xFLAG and PsK1-6xHIS; percent of leaves with HR [2] was 90%.
“PsK1-ECD with S59F replacement in LysM1 (as in the k1-3 mutant line) (domain or fragment)” showed a hypersensitive response in N. benthamiana leaves on co-production of full-length PsSYM10 and full-length PsK1-6xHIS with the LysM1 replacement (k1-3); percent of leaves with HR [3] of 93%.

From PMC6479807
